Tests used:
Assay in all cases: […]; 5 mM HEPES pH 7.5, 80 mM KCl, 20 °C; […]
Settings in all cases: both partners purified
[1] = biological target: T1, SARS-CoV-2 N protein residues 247–419 (SARS-CoV-2, UniProt P0DTC9 247-419)
T1 construct: also called N^247–419

[2] = biological target: T2, SARS-CoV-2 nucleocapsid (N) protein, full length (419 aa) (SARS-CoV-2, UniProt P0DTC9 1-419)
T2 construct: also called N^1–419; N^FL

[3] = biological target: T3, SARS-CoV-2 N protein residues 175–364 (SARS-CoV-2, UniProt P0DTC9 175-364)
T3 construct: also called N^175–364

[4] = biological target: T4, SARS-CoV-2 N protein residues 175–419 (SARS-CoV-2, UniProt P0DTC9 175-419)
T4 construct: also called N^175–419

Measured: binding result

B1: soluble C-terminal domain of SARS-CoV-2 membrane (M) protein (aa 104–222 of 222) fused to GFP (domain or fragment)
chain: ARTRSMWSFNPETNILLNVPLHGTILTRPLLESELVIGAVILRGHLRIAGHHLGRCDIKDLPKEITVATSRTLSYYKLGASQRVAGDSGFAAYSRYRIGNYKLNTDHSSSSDNIALLVQ
notes: also called GFP-M^104–222
binds: all assays above

Source: article PMC7820290 (Nature Communications, 2020)
